Experimental data published in article PMC9482650, “Quantitative fragmentomics allow affinity mapping of interactomes” (Nature Communications, 2022).
Changes are numbered by the printed parent chain.

T1: APBA1_2, Q02410
T1 sequence (Q02410 742-832, limits assumed, looked up): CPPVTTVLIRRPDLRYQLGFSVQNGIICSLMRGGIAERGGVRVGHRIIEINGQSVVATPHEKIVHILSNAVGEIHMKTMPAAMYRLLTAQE

T2: FRMPD1, Q5SYB0
T2 sequence (Q5SYB0 52-145, limits assumed, looked up): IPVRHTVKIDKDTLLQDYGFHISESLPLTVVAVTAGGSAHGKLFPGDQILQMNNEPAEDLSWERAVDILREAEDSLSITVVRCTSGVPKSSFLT

T3: SIPA1L2, Q9P2F8
T3 sequence (Q9P2F8 945-1036, limits assumed, looked up): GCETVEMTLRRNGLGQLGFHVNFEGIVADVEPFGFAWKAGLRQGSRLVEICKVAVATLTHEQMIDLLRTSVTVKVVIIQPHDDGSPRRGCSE

T4: APBA3_1, O96018
T4 sequence (O96018 389-490, limits assumed, looked up): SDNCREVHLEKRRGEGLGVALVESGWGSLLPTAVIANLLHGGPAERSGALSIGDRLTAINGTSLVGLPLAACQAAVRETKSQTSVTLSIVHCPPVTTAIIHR

T5: PTPN13_1, Q12923
T5 sequence (Q12923 1088-1188, limits assumed, looked up): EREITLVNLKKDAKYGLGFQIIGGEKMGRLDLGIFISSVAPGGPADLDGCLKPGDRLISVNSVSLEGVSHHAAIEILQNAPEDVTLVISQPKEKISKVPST

T6: NHERF3_4, Q5T2W1
T6 sequence (Q5T2W1 373-468, limits assumed, looked up): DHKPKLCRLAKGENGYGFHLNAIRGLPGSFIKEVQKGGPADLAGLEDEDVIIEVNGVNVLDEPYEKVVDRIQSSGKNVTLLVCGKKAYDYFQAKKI

T7: SYNJ2BP, P57105
T7 sequence (P57105 8-110, limits assumed, looked up): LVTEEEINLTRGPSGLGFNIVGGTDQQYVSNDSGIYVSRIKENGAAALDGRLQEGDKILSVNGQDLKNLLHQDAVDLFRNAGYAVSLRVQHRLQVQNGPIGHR

T8: APBA2_2, Q99767
T8 sequence (Q99767 654-744, limits assumed, looked up): T1 sequence (Q02410 742-832, limits assumed, looked up) with R10K, R15K, P59A, H65Q, I66A, A70S, Y84F, A89G

T9: ARHGAP21, Q5T5U3
T9 sequence (Q5T5U3 45-169, limits assumed, looked up): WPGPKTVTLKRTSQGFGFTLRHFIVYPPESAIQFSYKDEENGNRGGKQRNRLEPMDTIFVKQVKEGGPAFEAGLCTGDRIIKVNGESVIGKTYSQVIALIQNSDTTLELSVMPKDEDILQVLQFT

T10: HTRA4, P83105
T10 sequence (P83105 378-476, limits assumed, looked up): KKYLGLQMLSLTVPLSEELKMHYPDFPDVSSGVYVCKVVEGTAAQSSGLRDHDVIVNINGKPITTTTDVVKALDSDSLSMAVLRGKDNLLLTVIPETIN

T11: PDZD7_3, Q9H5P4
T11 sequence (Q9H5P4 857-944, limits assumed, looked up): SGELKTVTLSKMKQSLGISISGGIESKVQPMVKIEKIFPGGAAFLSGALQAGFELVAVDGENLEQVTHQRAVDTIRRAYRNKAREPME

T12: LIN7B, Q9HAP6
T12 sequence (Q9HAP6 88-185, limits assumed, looked up): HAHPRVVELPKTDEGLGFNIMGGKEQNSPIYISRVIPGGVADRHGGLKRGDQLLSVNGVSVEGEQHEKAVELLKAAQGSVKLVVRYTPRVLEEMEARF

T13: MPDZ_10, O75970
T13 sequence (O75970 1624-1722, limits assumed, looked up): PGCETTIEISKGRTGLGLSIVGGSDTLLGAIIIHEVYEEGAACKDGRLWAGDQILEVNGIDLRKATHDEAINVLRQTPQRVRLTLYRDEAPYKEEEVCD


Key:
Assay in all cases: holdup assay
Parameters in all cases: key: below the threshold = too weak to quantify, mostly under pKd 3.1 to 4
Settings in all cases: plain residues with an end cap or a label only (N-terminal biotin on a linker: ado-ado)
APBA1_2, Q02410 = biological target: T1, APBA1_2, Q02410
GRIP2_7, Q9C0E4 = biological target: GRIP2_7, Q9C0E4
GRIP2_7, Q9C0E4, sequence (Q9C0E4 934-1023): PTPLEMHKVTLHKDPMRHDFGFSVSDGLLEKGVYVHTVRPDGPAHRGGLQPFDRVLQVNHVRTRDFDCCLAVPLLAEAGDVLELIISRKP

GRIP2_3, Q9C0E4 = biological target: GRIP2_3, Q9C0E4
GRIP2_3, Q9C0E4, sequence (Q9C0E4 238-339): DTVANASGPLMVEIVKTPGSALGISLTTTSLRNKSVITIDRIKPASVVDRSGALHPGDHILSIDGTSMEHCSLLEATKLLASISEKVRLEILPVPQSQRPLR

FRMPD1, Q5SYB0 = biological target: T2, FRMPD1, Q5SYB0
MAGI3_2, Q5TCQ9 = biological target: MAGI3_2, Q5TCQ9
MAGI3_2, Q5TCQ9, sequence (Q5TCQ9 398-503): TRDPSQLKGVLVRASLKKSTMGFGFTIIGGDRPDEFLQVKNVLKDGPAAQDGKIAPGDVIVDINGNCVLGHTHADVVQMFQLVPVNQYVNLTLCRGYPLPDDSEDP

SIPA1L2, Q9P2F8 = biological target: T3, SIPA1L2, Q9P2F8
APBA3_1, O96018 = biological target: T4, APBA3_1, O96018
TJP2_1, Q9UDY2 = biological target: TJP2_1, Q9UDY2
TJP2_1, Q9UDY2, sequence (Q9UDY2 24-128): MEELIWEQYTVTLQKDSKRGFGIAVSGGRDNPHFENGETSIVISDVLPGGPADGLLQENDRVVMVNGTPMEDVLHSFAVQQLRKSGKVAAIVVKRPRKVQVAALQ

SNX27, Q96L92 = biological target: SNX27, Q96L92
PTPN13_1, Q12923 = biological target: T5, PTPN13_1, Q12923
NHERF3_4, Q5T2W1 = biological target: T6, NHERF3_4, Q5T2W1
Inadl_2, Q8NI35 = biological target: Inadl_2, Q8NI35
Inadl_2, Q8NI35, sequence (Q8NI35 238-335): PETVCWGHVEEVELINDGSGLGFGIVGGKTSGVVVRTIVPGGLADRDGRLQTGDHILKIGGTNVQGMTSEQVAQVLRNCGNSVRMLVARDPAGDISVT

SYNJ2BP, P57105 = biological target: T7, SYNJ2BP, P57105
MAST2, Q6P0Q8 = biological target: MAST2, Q6P0Q8
MAST2, Q6P0Q8, sequence (Q6P0Q8 1099-1202): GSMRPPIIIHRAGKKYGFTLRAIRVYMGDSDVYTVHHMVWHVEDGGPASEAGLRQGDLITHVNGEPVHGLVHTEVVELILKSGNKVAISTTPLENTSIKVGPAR

DLG1_1, Q12959 = biological target: DLG1_1, Q12959
MAGI2_4, Q86UL8 = biological target: MAGI2_4, Q86UL8
MAGI2_4, Q86UL8, sequence (Q86UL8 772-865): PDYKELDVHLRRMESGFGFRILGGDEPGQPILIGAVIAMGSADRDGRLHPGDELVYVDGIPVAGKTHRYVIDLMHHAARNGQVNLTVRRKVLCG

APBA2_2, Q99767 = biological target: T8, APBA2_2, Q99767
PDLIM1, O00151 = biological target: PDLIM1, O00151
PDLIM1, O00151, sequence (O00151 1-87): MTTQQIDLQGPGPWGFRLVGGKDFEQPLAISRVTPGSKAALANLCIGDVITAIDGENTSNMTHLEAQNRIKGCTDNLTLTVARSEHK

ARHGAP21, Q5T5U3 = biological target: T9, ARHGAP21, Q5T5U3
GRASP, Q7Z6J2 = biological target: GRASP, Q7Z6J2
GRASP, Q7Z6J2, sequence (Q7Z6J2 96-193): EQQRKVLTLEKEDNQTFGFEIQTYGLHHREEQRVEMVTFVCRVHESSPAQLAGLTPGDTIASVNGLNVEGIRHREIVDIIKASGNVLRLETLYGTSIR

HTRA4, P83105 = biological target: T10, HTRA4, P83105
GIPC2, Q8TF65 = biological target: GIPC2, Q8TF65
GIPC2, Q8TF65, sequence (Q8TF65 112-203): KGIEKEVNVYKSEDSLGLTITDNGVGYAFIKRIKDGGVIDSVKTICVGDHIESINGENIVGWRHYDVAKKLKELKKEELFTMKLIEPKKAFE

PDZD7_3, Q9H5P4 = biological target: T11, PDZD7_3, Q9H5P4
LIN7B, Q9HAP6 = biological target: T12, LIN7B, Q9HAP6
MPDZ_10, O75970 = biological target: T13, MPDZ_10, O75970

Binder | pKd (APBA1_2, Q02410) | pKd (GRIP2_7, Q9C0E4) | pKd (GRIP2_3, Q9C0E4) | pKd (FRMPD1, Q5SYB0) | pKd (MAGI3_2, Q5TCQ9) | pKd (SIPA1L2, Q9P2F8) | pKd (APBA3_1, O96018) | pKd (TJP2_1, Q9UDY2) | pKd (SNX27, Q96L92) | pKd (PTPN13_1, Q12923) | pKd (NHERF3_4, Q5T2W1) | pKd (Inadl_2, Q8NI35) | pKd (SYNJ2BP, P57105) | pKd (MAST2, Q6P0Q8) | pKd (DLG1_1, Q12959) | pKd (MAGI2_4, Q86UL8) | pKd (APBA2_2, Q99767) | pKd (PDLIM1, O00151) | pKd (ARHGAP21, Q5T5U3) | pKd (GRASP, Q7Z6J2) | further results
HLSTRQGTCV [ATRNL1, Q5VV63] | 4.62 | below the threshold | below the threshold | below the threshold | 5.16 | below the threshold | below the threshold | 4.35 | 4.05 | below the threshold | below the threshold | below the threshold | 5.37 | 4.94 | 4.18 | 4.97 | below the threshold | below the threshold | below the threshold | 4.28 | pKd (HTRA4, P83105): 4.33; pKd (GIPC2, Q8TF65): below the threshold; pKd (PDZD7_3, Q9H5P4): 4.2; pKd (LIN7B, Q9HAP6): below the threshold; pKd (MPDZ_10, O75970): 3.75
LLQEEWETVM [PTH1R, Q03431] | below the threshold | below the threshold | below the threshold | below the threshold | below the threshold | below the threshold | below the threshold | below the threshold | 5.65 | below the threshold | 4.64 | below the threshold | below the threshold | 5.68 | below the threshold | below the threshold | below the threshold | below the threshold | 4.11 | 3.72 | pKd (HTRA4, P83105): below the threshold; pKd (GIPC2, Q8TF65): below the threshold; pKd (PDZD7_3, Q9H5P4): 4.45; pKd (LIN7B, Q9HAP6): below the threshold; pKd (MPDZ_10, O75970): below the threshold
LPPPESESKV [KCNJ9, Q92806] | below the threshold | below the threshold | below the threshold | below the threshold | 4 | below the threshold | below the threshold | below the threshold | 5.43 | below the threshold | below the threshold | below the threshold | 4.02 | 4.9 | below the threshold | below the threshold | below the threshold | below the threshold | below the threshold | below the threshold | pKd (HTRA4, P83105): below the threshold; pKd (GIPC2, Q8TF65): below the threshold; pKd (PDZD7_3, Q9H5P4): below the threshold; pKd (LIN7B, Q9HAP6): 3.77; pKd (MPDZ_10, O75970): below the threshold
KKTPVSRSHL [SLC22A3, O75751] | 3.77 | below the threshold | below the threshold | below the threshold | below the threshold | 3.53 | below the threshold | below the threshold | 3.65 | below the threshold | below the threshold | below the threshold | below the threshold | 4.69 | below the threshold | below the threshold | below the threshold | below the threshold | 3.97 | 4.38 | pKd (HTRA4, P83105): 3.81; pKd (GIPC2, Q8TF65): below the threshold; pKd (PDZD7_3, Q9H5P4): 3.91; pKd (LIN7B, Q9HAP6): below the threshold; pKd (MPDZ_10, O75970): below the threshold

Continued, in another order:

pKd (APBA1_2, Q02410) | pKd (GRIP2_7, Q9C0E4) | pKd (GRIP2_3, Q9C0E4) | pKd (FRMPD1, Q5SYB0) | pKd (MAGI3_2, Q5TCQ9) | pKd (SIPA1L2, Q9P2F8) | pKd (APBA3_1, O96018) | pKd (TJP2_1, Q9UDY2) | pKd (SNX27, Q96L92) | pKd (PTPN13_1, Q12923) | pKd (NHERF3_4, Q5T2W1) | pKd (Inadl_2, Q8NI35) | pKd (SYNJ2BP, P57105) | pKd (MAST2, Q6P0Q8) | pKd (DLG1_1, Q12959) | pKd (MAGI2_4, Q86UL8) | pKd (APBA2_2, Q99767) | pKd (PDLIM1, O00151) | pKd (ARHGAP21, Q5T5U3) | pKd (GRASP, Q7Z6J2) | Binder | further results
3.62 | below the threshold | below the threshold | below the threshold | below the threshold | below the threshold | below the threshold | below the threshold | 5.62 | below the threshold | 4.57 | below the threshold | below the threshold | 5.56 | below the threshold | below the threshold | below the threshold | below the threshold | 3.94 | 4.8 | NNMAFETTHF [SLC5A12, Q1EHB4] | pKd (HTRA4, P83105): below the threshold; pKd (GIPC2, Q8TF65): below the threshold; pKd (PDZD7_3, Q9H5P4): below the threshold; pKd (LIN7B, Q9HAP6): 3.62; pKd (MPDZ_10, O75970): below the threshold
below the threshold | below the threshold | below the threshold | below the threshold | below the threshold | below the threshold | below the threshold | below the threshold | 3.68 | below the threshold | below the threshold | below the threshold | below the threshold | 5.13 | below the threshold | below the threshold | below the threshold | below the threshold | 3.77 | 3.63 | SSSVNVSSNL [CXCR1, P25024] | pKd (HTRA4, P83105): 3.89; pKd (GIPC2, Q8TF65): below the threshold; pKd (PDZD7_3, Q9H5P4): below the threshold; pKd (LIN7B, Q9HAP6): 3.58; pKd (MPDZ_10, O75970): below the threshold
